Among the data in patent US20250011363A1, “OPTIMIZED SHORTENED PEPTIDE THAT BINDS TO ACETYLCHOLINE RECEPTOR, AND USE THEREOF” (SKINMED CO., LTD., priority 2021, published 2025) are Binding affinity values, retold here.

This assay has as its target acetylcholine receptor (Homo sapiens, UniProt P02708). Put plainly: SPR binding affinity (RU) of optimized 5mer/6mer/7mer peptides, Examples 6-7. The settings on record: SPR, peptides tested at 10 μM. The procedure, abridged:
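Synthetic 5mer and 6mer peptides, built from frequent or infrequent amino-acid combinations, were tested at 10 μM for binding to the human acetylcholine receptor by surface plasmon resonance. Binding is reported in response units (RU).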
(SPR reads the build-up and loss of mass on a sensor chip optically.)

Setting [1] is: Resonance Units, 6mer-2 Top sequence (Table 12).

Sequence of acetylcholine receptor (P02708 21-457): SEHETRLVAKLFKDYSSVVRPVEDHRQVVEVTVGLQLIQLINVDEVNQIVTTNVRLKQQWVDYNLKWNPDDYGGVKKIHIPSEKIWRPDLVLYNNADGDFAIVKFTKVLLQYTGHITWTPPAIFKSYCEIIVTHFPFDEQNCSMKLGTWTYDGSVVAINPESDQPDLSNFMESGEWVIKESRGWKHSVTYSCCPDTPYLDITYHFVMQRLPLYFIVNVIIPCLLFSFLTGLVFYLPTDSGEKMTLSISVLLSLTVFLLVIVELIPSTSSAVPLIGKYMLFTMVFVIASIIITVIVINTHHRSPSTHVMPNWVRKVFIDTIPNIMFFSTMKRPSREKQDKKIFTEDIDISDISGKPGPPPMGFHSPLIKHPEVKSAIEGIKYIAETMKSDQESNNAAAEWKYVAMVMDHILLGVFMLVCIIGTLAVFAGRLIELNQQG

Regarding 6mer-2-141 (KWYQKK), the Binding affinity (6mer-2 Top sequence) is reported as 154 Ru.
In the case of 6mer-2-142 (RWVLRR), the Binding affinity (6mer-2 Top sequence) is on record as 121 Ru.
On the same count and under the same terms, next, 6mer-2-143 (RRVCRR): 128 Ru.
For the substance 6mer-2-144 (KSIRRK), the Binding affinity (6mer-2 Top sequence) is listed as 133 Ru.
Still for that read-out and setting: next, 6mer-2-145 (RQYYKK): 128 Ru.
As for 6mer-2-146 (KQLLKR), where the note is “6mer-2 Top sequence”, the Binding affinity was found to be 135 Ru.
Consider 6mer-2-147 (RQYTKR), for which the Binding affinity (6mer-2 Top sequence) worked out at 133 Ru.
On the same count and under the same terms, next, 6mer-2-148 (KGQYKK): 145 Ru.
The same measure, in the same setting: next, 6mer-2-149 (KGQQRK): 127 Ru; 6mer-2-150 (KRILKR): 136 Ru; 6mer-2-151 (KQLRKR): 142 Ru.
Still for that read-out and setting: next, 6mer-2-152 (RQFYKR): 139 Ru.
Regarding 6mer-2-153 (RVYSRR), where the note is “6mer-2 Top sequence”, the Binding affinity is 124 Ru.
In the case of 6mer-2-154 (KRVTKR), the Binding affinity (6mer-2 Top sequence) was 148 Ru.
As for 6mer-2-155 (KGVYKK), the Binding affinity (6mer-2 Top sequence) was 139 Ru.
The same measure, in the same setting: the figure for 6mer-2-156 (KGLQRR) is 127 Ru.
Turning to 6mer-2-157 (RSYRKK), under “6mer-2 Top sequence”, the Binding affinity came out at 153 Ru.
As for 6mer-2-158 (RSFLRR), under “6mer-2 Top sequence”, the Binding affinity is listed as 145 Ru.
On the same count and under the same terms, next, 6mer-2-159 (RQYYRK): 127 Ru.
In the case of 6mer-2-160 (RVRRKK), the Binding affinity (6mer-2 Top sequence) is given as 121 Ru.
Same read-out and setting: the figure for 6mer-2-161 (KWRRKK) is 154 Ru; for 6mer-2-162 (KVISKR) it is 136 Ru.
Consider 6mer-2-163 (KWFYRR), for which, where the note is “6mer-2 Top sequence”, the Binding affinity is 149 Ru.
In the case of 6mer-2-164 (KRQRRK), the Binding affinity (6mer-2 Top sequence) is listed as 135 Ru.
The same measure, in the same setting: the figure for 6mer-2-165 (KWFTRR) is 139 Ru.
With 6mer-2-166 (RWLRKR), under “6mer-2 Top sequence”, the Binding affinity is on record as 125 Ru.
With 6mer-2-167 (KLFQKR), the Binding affinity (6mer-2 Top sequence) is reported as 145 Ru.
On to 6mer-2-168 (RVFLKR), for which, under “6mer-2 Top sequence”, the Binding affinity was determined as 135 Ru.
Same read-out and setting: next, 6mer-2-169 (KRQSRR): 123 Ru; 6mer-2-170 (RQYQKK): 128 Ru.
Turning to 6mer-2-171 (RQQTRR), the Binding affinity (6mer-2 Top sequence) amounted to 139 Ru.
On the same count and under the same terms, the figure for 6mer-2-172 (KVIRKK) is 128 Ru; for 6mer-2-173 (RQQCKK) it is 127 Ru.
In the case of 6mer-2-174 (KLLRKR), for the setting “6mer-2 Top sequence”, the Binding affinity came out at 142 Ru.
Same read-out and setting: the figure for 6mer-2-175 (KVYLRK) is 137 Ru; for 6mer-2-176 (RWIYRR) it is 144 Ru.
On to 6mer-2-177 (RSVTKK), for which, for the setting “6mer-2 Top sequence”, the Binding affinity was found to be 136 Ru.
Take 6mer-2-178 (KWLLRR): the Binding affinity (6mer-2 Top sequence) is listed as 133 Ru.
The same measure, in the same setting: next, 6mer-2-179 (RRVYRR): 121 Ru; 6mer-2-180 (RLRLKR): 142 Ru.
For the substance 6mer-2-181 (RWQQKK), the Binding affinity (6mer-2 Top sequence) was 139 Ru.
Take 6mer-2-182 (KLFYKK): the Binding affinity (6mer-2 Top sequence) was found to be 139 Ru.
The same measure, in the same setting: next, 6mer-2-183 (RLQLRR): 154 Ru; 6mer-2-184 (KWVSRR): 136 Ru; 6mer-2-185 (RGYQKR): 137 Ru.
Still for that read-out and setting: the figure for 6mer-2-186 (KQICRK) is 127 Ru.
On the same count and under the same terms, the figure for 6mer-2-187 (KRRRRK) is 145 Ru.
Regarding 6mer-2-188 (RGYTKR), the Binding affinity (6mer-2 Top sequence) was found to be 142 Ru.
For the substance 6mer-2-189 (RWQCKK), the Binding affinity (6mer-2 Top sequence) is 121 Ru.
Still for that read-out and setting: next, 6mer-2-190 (KVYLKR): 148 Ru; 6mer-2-191 (RQLLKR): 154 Ru; 6mer-2-192 (RWFSKK): 133 Ru.
As to 6mer-2-193 (KWISKR), the Binding affinity (6mer-2 Top sequence) came to 127 Ru.
6mer-2-194 (KLRLRK): under “6mer-2 Top sequence”, the Binding affinity was 154 Ru.
On the same count and under the same terms, next, 6mer-2-195 (KSRQKR): 154 Ru; 6mer-2-196 (KSQRKK): 121 Ru.
Turning to 6mer-2-197 (RGQYRR), for the setting “6mer-2 Top sequence”, the Binding affinity was found to be 126 Ru.
6mer-2-198 (KWYYRK): the Binding affinity (6mer-2 Top sequence) is given as 139 Ru.
Still for that read-out and setting: next, 6mer-2-199 (RGQYKR): 137 Ru; 6mer-2-200 (RGVQRK): 121 Ru; 6mer-2-201 (KLFLRR): 148 Ru.
Take 6mer-2-202 (RLIYKK): under “6mer-2 Top sequence”, the Binding affinity was found to be 122 Ru.
Turning to 6mer-2-203 (KSRTKR), under setting [1], the Binding affinity is recorded as 135 Ru.
Same read-out and setting: next, 6mer-2-204 (RRVQKR): 142 Ru.
As for 6mer-2-205 (KSFQRK), the Binding affinity under setting [1] is listed as 147 Ru.
Same read-out and setting: next, 6mer-2-206 (KWQYKK): 148 Ru.
Still for that read-out and setting: the figure for 6mer-2-207 (KWVSKR) is 153 Ru; for 6mer-2-208 (RSQQRK) it is 128 Ru.
For 6mer-2-209 (RLYYRK), under setting [1], the Binding affinity is reported as 148 Ru.
The same measure, in the same setting: next, 6mer-2-210 (RSQSRR): 128 Ru; 6mer-2-211 (RGLSRR): 135 Ru.
In the case of 6mer-2-212 (KWQLRR), under setting [1], the Binding affinity turned out to be 148 Ru.
With 6mer-2-213 (KSILRR), under setting [1], the Binding affinity was found to be 142 Ru.
Turning to 6mer-2-214 (RWRSRK), the Binding affinity under setting [1] is recorded as 139 Ru.
On the same count and under the same terms, next, 6mer-2-215 (RLYYRR): 123 Ru; 6mer-2-216 (KGILKK): 126 Ru; 6mer-2-217 (KLFQKK): 135 Ru.
Same read-out and setting: the figure for 6mer-2-218 (KGVSKK) is 147 Ru.
The same measure, in the same setting: the figure for 6mer-2-219 (RGVSKR) is 153 Ru; for 6mer-2-220 (KVYSKR) it is 135 Ru; for 6mer-2-221 (KQVRKK) it is 153 Ru.
On to 6mer-2-222 (RVVYRK), for which the Binding affinity under setting [1] is listed as 127 Ru.
Take 6mer-2-223 (KQLTRR): under setting [1], the Binding affinity was 142 Ru.
Take 6mer-2-224 (RLFLKR): under setting [1], the Binding affinity came to 148 Ru.
Same read-out and setting: next, 6mer-2-225 (KRLLRR): 145 Ru.
Consider 6mer-2-226 (RLLCKR), for which, under setting [1], the Binding affinity was 154 Ru.
On the same count and under the same terms, next, 6mer-2-227 (KLQRRK): 147 Ru.
Same read-out and setting: the figure for 6mer-2-228 (KGQCKK) is 141 Ru; for 6mer-2-229 (RWQSKK) it is 127 Ru; for 6mer-2-230 (RWIQRR) it is 135 Ru.
As for 6mer-2-231 (KGISKK), the Binding affinity under setting [1] is 144 Ru.
With 6mer-2-232 (KQFTRK), the Binding affinity under setting [1] was found to be 135 Ru.
Same read-out and setting: the figure for 6mer-2-234 (RSQTKR) is 142 Ru; for 6mer-2-235 (KLVRKK) it is 136 Ru; for 6mer-2-236 (KWQQKK) it is 131 Ru.
On the same count and under the same terms, next, 6mer-2-237 (RLVYKR): 123 Ru.
For 6mer-2-238 (RRRRRK), the Binding affinity under setting [1] turned out to be 142 Ru.
